From patent publication US20220298223A1 (KING S COLLEGE LONDON, published 2022)

T1: human CD19 expressed on LO68 tumor cells (human, UniProt P15391 20-556)
T1 construct: whole, on cells; also called CD19+ LO68 tumor cells; CD19-engineered LO68 tumor cells
T1 sequence (looked up): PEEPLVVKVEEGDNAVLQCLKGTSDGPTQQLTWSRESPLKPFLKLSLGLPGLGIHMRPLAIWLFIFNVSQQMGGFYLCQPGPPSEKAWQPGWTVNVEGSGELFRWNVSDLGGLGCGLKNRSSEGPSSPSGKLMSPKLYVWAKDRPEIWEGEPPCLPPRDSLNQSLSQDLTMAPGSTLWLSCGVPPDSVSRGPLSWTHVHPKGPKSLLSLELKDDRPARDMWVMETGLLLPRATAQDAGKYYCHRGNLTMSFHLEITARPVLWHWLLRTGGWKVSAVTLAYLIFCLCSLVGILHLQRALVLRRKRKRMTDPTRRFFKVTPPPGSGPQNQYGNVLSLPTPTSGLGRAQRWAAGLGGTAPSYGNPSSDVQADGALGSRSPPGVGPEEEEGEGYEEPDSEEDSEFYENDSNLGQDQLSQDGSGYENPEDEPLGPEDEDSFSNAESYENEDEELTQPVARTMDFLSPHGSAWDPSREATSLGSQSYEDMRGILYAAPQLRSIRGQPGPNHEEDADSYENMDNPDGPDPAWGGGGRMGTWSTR

B1: G02 second generation CAR (F-2 with the second glycine of FMC63 VH CDR3 substituted by alanine), expressed on human T cells (other)
chain: DIQMTQTTSSLSASLGDRVTISCRASQDISKYLNWYQQKPDGTVKLLIYHTSRLHSGVPSRFSGSGSGTDYSLTISNLEQEDIATYFCQQGNTLPYTFGGGTKLEITGGGGSGGGGSGGGGSEVKLQESGPGLVAPSQSLSVTCTVSGVSLPDYGVSWIRQPPRKGLEWLGVIWGSETTYYNSALKSRLTIIKDNSKSQVFLKMNSLQTDDTAIYYCAKHYYYGASYAMDYWGQGTSVTVSSAAAIEVEQKLISEEDLLDNEKSNGTIIHVKGKHLCPSPLFPGPSKPFWVLVVVGGVLACYSLLVTVAFIIFWVRSKRSRLLHSDYMNMTPRRPGPTRKHYQPYAPPRDFAAYRSRVKFSRSADAPAYQQGQNQLYNELNLGRREEYDVLDKRRGRDPEMGGKPRRKNPQEGLYNELQKDKMAEAYSEIGMKGERRRGKGHDGLYQGLSTATKDTYDALHMQALPPR
notes: CAR on transduced human T cells; also called FMC63(G02)
B2: Y01 second generation CAR (F-2 with the first tyrosine of FMC63 VH CDR3 substituted by alanine), expressed on human T cells (other)
chain: DIQMTQTTSSLSASLGDRVTISCRASQDISKYLNWYQQKPDGTVKLLIYHTSRLHSGVPSRFSGSGSGTDYSLTISNLEQEDIATYFCQQGNTLPYTFGGGTKLEITGGGGSGGGGSGGGGSEVKLQESGPGLVAPSQSLSVTCTVSGVSLPDYGVSWIRQPPRKGLEWLGVIWGSETTYYNSALKSRLTIIKDNSKSQVFLKMNSLQTDDTAIYYCAKHAYYGGSYAMDYWGQGTSVTVSSAAAIEVEQKLISEEDLLDNEKSNGTIIHVKGKHLCPSPLFPGPSKPFWVLVVVGGVLACYSLLVTVAFIIFWVRSKRSRLLHSDYMNMTPRRPGPTRKHYQPYAPPRDFAAYRSRVKFSRSADAPAYQQGQNQLYNELNLGRREEYDVLDKRRGRDPEMGGKPRRKNPQEGLYNELQKDKMAEAYSEIGMKGERRRGKGHDGLYQGLSTATKDTYDALHMQALPPR
notes: CAR on transduced human T cells; also called FMC63(Y01)
B3: Y03 second generation CAR (F-2 with the third tyrosine of FMC63 VH CDR3 substituted by alanine), expressed on human T cells (other)
chain: DIQMTQTTSSLSASLGDRVTISCRASQDISKYLNWYQQKPDGTVKLLIYHTSRLHSGVPSRFSGSGSGTDYSLTISNLEQEDIATYFCQQGNTLPYTFGGGTKLEITGGGGSGGGGSGGGGSEVKLQESGPGLVAPSQSLSVTCTVSGVSLPDYGVSWIRQPPRKGLEWLGVIWGSETTYYNSALKSRLTIIKDNSKSQVFLKMNSLQTDDTAIYYCAKHYYAGGSYAMDYWGQGTSVTVSSAAAIEVEQKLISEEDLLDNEKSNGTIIHVKGKHLCPSPLFPGPSKPFWVLVVVGGVLACYSLLVTVAFIIFWVRSKRSRLLHSDYMNMTPRRPGPTRKHYQPYAPPRDFAAYRSRVKFSRSADAPAYQQGQNQLYNELNLGRREEYDVLDKRRGRDPEMGGKPRRKNPQEGLYNELQKDKMAEAYSEIGMKGERRRGKGHDGLYQGLSTATKDTYDALHMQALPPR
notes: CAR on transduced human T cells; also called FMC63(Y03)
B4: Y04 second generation CAR (F-2 with the fourth tyrosine of FMC63 VH CDR3 substituted by alanine), expressed on human T cells (other)
chain: DIQMTQTTSSLSASLGDRVTISCRASQDISKYLNWYQQKPDGTVKLLIYHTSRLHSGVPSRFSGSGSGTDYSLTISNLEQEDIATYFCQQGNTLPYTFGGGTKLEITGGGGSGGGGSGGGGSEVKLQESGPGLVAPSQSLSVTCTVSGVSLPDYGVSWIRQPPRKGLEWLGVIWGSETTYYNSALKSRLTIIKDNSKSQVFLKMNSLQTDDTAIYYCAKHYYYGGSAAMDYWGQGTSVTVSSAAAIEVEQKLISEEDLLDNEKSNGTIIHVKGKHLCPSPLFPGPSKPFWVLVVVGGVLACYSLLVTVAFIIFWVRSKRSRLLHSDYMNMTPRRPGPTRKHYQPYAPPRDFAAYRSRVKFSRSADAPAYQQGQNQLYNELNLGRREEYDVLDKRRGRDPEMGGKPRRKNPQEGLYNELQKDKMAEAYSEIGMKGERRRGKGHDGLYQGLSTATKDTYDALHMQALPPR
notes: CAR on transduced human T cells; also called FMC63(Y04)

Target: T1, human CD19 expressed on LO68 tumor cells
Experiment: z-Movi microfluidic chip, CAR T cells on a monolayer of CD19+ LO68 tumor cells, force ramp, percent bound T cells
Description: CD19-engineered LO68 tumor cells were seeded in a z-Movi microfluidic chip and cultured for 16 hours. The next day, flow sorted CAR-T cells were serially flowed in the chips and incubated with the target cells for 5 minutes prior to initializing a 3-minute linear force ramp. Cell detachment was determined using post-experiment using image analysis techniques.
Increasing fluidic force was applied and the percentage of bound T-cells was determined (median, n=3). […] Data are presented as median rForce which is the relative force required to elicit cell detachment, calibrated to […] polystyrene beads. Since data were not normally distributed, they are presented as median rForce which is the relative force required to elicit cell detachment and calibrated to […] polystyrene beads. […] Data shown are mean±standard error (n=11 runs, 3 independent donors). […] For clarity, a single representative run for one healthy donor is plotted in which each dot represents a single cell.

Binding result, binds:
B1
B2
B3
B4
